According to the supplement of paper PMC10567573:

B1: SMTNL2 (parent)
chain: QKNFELAFTMAENLANCERLIEVE
B2: PKD2L1 (parent)
chain: SGPEAARAGGWVSGEEFYMLTRRV

Variants of: B1
Assay: protein stability index of a GFP-peptide fusion (GPS, HEK-293T) (PSI 1-6); higher = more stable
Conditions: c terminus: a fixed tail appended
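Also: lentivirally expressed fusions sorted by FACS into six bins by GFP to DsRed ratio, PSI derived from sequencing read proportions per bin multiplied by bin number.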

Protein stability index of substitutions, site by site:
I21: E 4.62 | V 2.96 | H 3.17 | R 2.44 | Y 2.99 | C 3.27 | G 3.85 | Q 3.72 | P 4.14 | W 3.67 | F 2.29 | M 2.61 | K 3.46 | N 3.95 | T 4.29 | A 3.25 | S 4.54 | D 4.39
N16: F 1.36 | Q 2.33 | P 2.8 | K 3.84 | E 2.89 | W 3.51 | C 1.85 | I 2.83 | V 2.61 | Y 2.33 | L 2.73 | R 1.44 | M 1.34
A7: T 2.2 | C 2.56 | S 1.78 | F 1.88 | P 3.32 | Y 2.08 | W 2.26 | M 1.73 | V 1.77 | Q 2.58 | E 1.68 | K 2.98 | L 1.22 | D 2.85 | H 2.16
M10: C 3.37 | F 3.08 | V 3.29 | P 3.66 | A 3.87 | D 4.64 | L 1.66 | I 1.57 | E 4.17 | H 3.91 | K 3.9 | Y 3.45 | G 4.33 | T 3.66 | S 3.88 | W 1.41 | Q 4.38 | N 4.24 | R 3.77
A11: E 3.78 | M 1.49 | K 2.29 | D 3.85 | C 3.46 | N 2.82 | I 4.18 | W 2.75 | H 3.39 | Q 1.62 | S 2.79 | G 2.04 | P 3.85 | R 3.03
C17: A 2.16 | G 2.98 | D 3.98 | S 2.28 | K 3.5 | N 4.09 | V 2.02 | R 3.51 | P 4.29 | T 1.39 | I 2.14 | F 2.14 | M 2.83 | Q 2.79 | Y 2.78 | H 3.37
T9: G 2.02 | V 2.5 | P 3.3 | Y 2.57 | C 2.03 | W 2.96 | A 1.37 | Q 1.89 | K 1.39 | I 3.12 | S 1.98 | R 1.13 | H 1.96 | N 2.37 | D 2.74 | E 2.9
E24: Q 1.33 | R 2.4 | C 1.42 | K 2.22 | I 1.03 | P 2.15 | H 1.6 | Y 2.13 | L 1.56 | N 2.11 | T 1.95 | S 1.36 | D 1.62 | F 3.44 | A 2.84 | G 2.13 | V 1.45 | M 1.89
L20: Q 1.61 | C 2.1 | M 1.35 | N 4.06 | R 2.12 | V 1.27 | T 2.25 | I 2.31 | H 2.69 | S 3.52 | F 2.15 | A 2.55 | G 2.97 | E 2.92 | K 2.46 | W 1.38 | Y 2.08 | D 4.42 | P 3.58
E12: D 1.8 | R 1.33 | S 4 | Q 1.87 | G 1.98 | W 3.4 | H 2.01 | V 3.63 | P 2.26 | T 1.86 | K 2.05 | N 2.6 | L 2.69 | I 1.74
E22: A 3.4 | K 2.71 | N 1.68 | G 1.55 | P 2.82 | M 2.94 | C 2.79 | I 2.9 | H 1.88 | D 1.72 | T 3.65
V23: M 4.25 | I 1.78 | A 2.18 | N 1.69 | Y 3.99 | Q 1.3 | F 2.36 | D 1.77 | G 2.04 | S 2.25 | H 2.73 | C 2.21 | W 1.63 | E 2.93 | P 2.98 | L 2.34 | K 1.66 | T 3.11 | R 2.21
E18: M 2.73 | S 2.65 | R 1.85 | C 2.68 | Y 3.75 | I 4.4 | H 2.64 | Q 1.97 | K 2.04 | V 1 | N 2.22 | L 1.59 | A 2.09 | G 1.84 | D 2.98 | T 2.18 | P 2.6
N13: T 1.8 | W 2 | S 2.33 | C 2.69 | H 1.41 | G 2.19 | P 3.63 | K 1.95 | R 1.67 | V 1.33 | I 2.98 | E 2.21 | Y 2.99 | Q 1.68 | L 1.98 | F 2.82
L14: N 2.72 | V 3.19 | F 3.11 | I 2.89 | D 4.44 | R 3.92 | C 3.14 | P 3.89 | W 2.26 | M 2.02 | K 3.8 | A 3.7 | H 3.53 | Y 3.37 | Q 3.98 | E 4.23 | T 3.79 | S 3.69
L6: N 2.91 | Q 2.54 | R 3.29 | V 2.04 | P 3.62 | T 2.01 | S 2.19
F8: D 4.41 | C 1.07 | S 1.45 | H 2.33 | Y 1.35 | E 3.82 | P 4.98 | T 2.6 | N 2.06 | G 4.29 | W 1.48 | Q 3.61 | V 2.12
A15: I 1.87 | D 3.49 | C 2.46 | F 1.45 | H 2.1 | S 1.46 | M 1.92 | L 1.52 | R 1.38 | N 2.04 | V 2.83 | Y 1.84 | E 3.11 | Q 1.42 | P 2.93 | G 2.67 | T 1.32
R19: V 1.27 | S 2.55 | H 1.97 | Q 1.9 | W 3.89 | E 3.33 | I 2.57 | M 2.86 | A 1.84 | F 2.86 | G 2.92 | T 2.61 | N 3.03 | C 1.83 | P 3.57 | K 1.52 | L 1.55

Variants of: B2
Assay: as above
Conditions: c terminus: a fixed tail appended

Protein stability index of substitutions, site by site:
S1: F 1.12 | L 1.5 | Q 3.02 | D 2.35 | N 2.65 | A 2.81 | K 2.75 | W 2.85 | P 2.35 | Y 1.46 | I 2.64 | M 2.04 | T 2.68 | E 2.68 | V 2.67 | H 2.53
G2: S 2.19 | F 1.83 | M 3.57 | P 2.08 | E 3.1 | R 2.24 | H 2.17 | D 2.24 | W 2.91 | Y 1.72 | T 2.94 | N 2.93 | C 1.67 | K 1.8 | A 2 | Q 2.64 | V 2.27
P3: D 2.04 | E 2.43 | A 2.38 | C 2.11
